Assay results published in patent US20220372150A1 (ZHEJIANG DOER BIOLOGICS, published 2022).

Assays:
[1] = target: T1, Mouse mPDL1-HSA fusion protein (mouse); assay: ELISA on coated mPDL1-HSA, anti-his detection
T1 construct: The entry is the whole fusion of mouse PD-L1 with HSA; also called mouse PDL1
Experimental: Mouse mPDL1-HSA fusion protein (SEQ ID NO: 52) was coated onto a plate overnight in an amount of 200 ng/ well at 4° C., and blocked with 5% skimmed milk powder for 1 hr at room temperature. The purified histidine-tagged anti-PDL1single-domain antibody was diluted to 1 μg/mL, then added to the plate in an amount of 100 μL/well, and incubated at 37° C. for 1 hr. After washing three times with PBST, 100 μl/well of 1:5000 diluted mouse anti his tag antibody (R&D Systems Inc) was added, and the plate was incubated at room temperature for 1 hr. After washing with PBST, 100 μl/well of 1:10000 diluted HRP-Goat anti mouse IgG antibody (Thermo Scientific) was added, and the plate was incubated at room temperature for 1 hr. After washing with PBST, TMB was added for color development, and the OD value was detected at 450 nm.

[2] = target: T2, HSA (purchased from Sigma) (human, UniProt P02768 25-609); assay: ELISA, VHH at 1 µg/mL on coated HSA, anti-his detection
T2 construct: Control coating for the fusion partner of PDL1-HSA; also called human serum albumin
T2 sequence (P02768 25-609 limits assumed): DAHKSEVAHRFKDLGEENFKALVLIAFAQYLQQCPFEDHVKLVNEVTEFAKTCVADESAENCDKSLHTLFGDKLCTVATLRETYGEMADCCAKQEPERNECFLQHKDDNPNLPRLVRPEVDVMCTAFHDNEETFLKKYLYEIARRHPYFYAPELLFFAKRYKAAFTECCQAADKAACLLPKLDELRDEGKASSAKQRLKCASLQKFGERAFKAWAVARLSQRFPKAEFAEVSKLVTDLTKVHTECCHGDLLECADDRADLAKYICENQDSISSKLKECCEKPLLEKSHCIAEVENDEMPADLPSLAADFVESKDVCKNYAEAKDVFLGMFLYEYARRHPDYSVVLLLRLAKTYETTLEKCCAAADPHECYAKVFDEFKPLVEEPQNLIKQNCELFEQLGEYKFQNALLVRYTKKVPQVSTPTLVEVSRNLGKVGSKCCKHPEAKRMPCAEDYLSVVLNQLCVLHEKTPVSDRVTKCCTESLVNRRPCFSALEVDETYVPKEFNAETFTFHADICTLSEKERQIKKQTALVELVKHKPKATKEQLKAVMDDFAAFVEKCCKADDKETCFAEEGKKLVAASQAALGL
Experimental: (§1) Human PDL1-HSA or HSA (purchased from Sigma) was coated onto a plate in an amount of 200 ng/well at 4° C., and blocked with 5% skimmed milk powder for 1 hr at room temperature. The purified anti-PDL1single-domain antibody with a histidine-tag was diluted to 1 μg/mL, added to the plate in an amount of 100 μL/well, and incubated at 37° C. for 1 hr. After washing three times with PBST, 100 μl/well of 1:5000 diluted mouse anti-his tag antibody (R&D Systems Inc.) was added, and the plate was incubated at room temperature for 1 hr. After washing with PBST, 100 μwell of 1:10000 diluted HRP-Goat anti mouse IgG antibody (Thermo Scientific) was added, and the plate was incubated at room temperature for 1 hr. After washing with PBST, a TMB developing solution (Beijing ComWin Biotech Co., Ltd) was added for color development, and the OD value was read at 450 nm.

[3] = target: T3, PDL1-HSA fusion protein composed of PDL1 extracellular domain and human serum albumin (human); assay: ELISA, VHH at 1 µg/mL on coated PDL1-HSA, anti-his detection
T3 construct: The entry is the whole fusion: PD-L1 extracellular domain, linker, human serum albumin; also called Human PDL1-HSA; hPDL1-HSA
T3 sequence (chain, as listed by the source limits assumed): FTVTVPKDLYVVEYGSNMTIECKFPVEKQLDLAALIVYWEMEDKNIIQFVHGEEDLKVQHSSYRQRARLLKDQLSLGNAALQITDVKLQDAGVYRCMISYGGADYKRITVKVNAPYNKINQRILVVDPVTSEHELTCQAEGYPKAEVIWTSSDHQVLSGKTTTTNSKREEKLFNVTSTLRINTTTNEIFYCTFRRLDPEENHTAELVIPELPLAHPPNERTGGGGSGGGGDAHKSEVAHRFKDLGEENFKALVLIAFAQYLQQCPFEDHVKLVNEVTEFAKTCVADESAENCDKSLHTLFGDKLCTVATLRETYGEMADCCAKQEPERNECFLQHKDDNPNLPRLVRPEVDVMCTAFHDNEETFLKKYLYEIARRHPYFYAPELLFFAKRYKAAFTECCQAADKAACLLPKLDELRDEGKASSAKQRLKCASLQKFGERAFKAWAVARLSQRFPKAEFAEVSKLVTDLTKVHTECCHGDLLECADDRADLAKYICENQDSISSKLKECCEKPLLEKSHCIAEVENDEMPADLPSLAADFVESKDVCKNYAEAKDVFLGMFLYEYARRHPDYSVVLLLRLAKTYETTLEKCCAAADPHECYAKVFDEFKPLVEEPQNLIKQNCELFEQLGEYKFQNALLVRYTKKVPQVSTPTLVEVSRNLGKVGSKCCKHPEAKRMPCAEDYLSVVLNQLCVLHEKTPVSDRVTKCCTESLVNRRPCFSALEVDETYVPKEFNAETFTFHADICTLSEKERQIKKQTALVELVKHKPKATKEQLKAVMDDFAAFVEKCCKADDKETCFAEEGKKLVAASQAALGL
Experimental: as §1

[4] = target: T3, PDL1-HSA fusion protein composed of …; assay: competitive ELISA on coated PDL1-HSA; competitor PD1-Fc (4.8 µg/mL, mixed in equal volume)
Experimental: PDL1-HSA was coated onto a plate overnight in an amount of 200 ng/well at 4° C., and blocked with 5% skimmed milk powder for 1 hr at room temperature. […] 100 μl was added per well and incubated at 37° C. for 1 hr. After washing three times with PBST, 100 μl of 1:20000 diluted HRP-Goat anti-Human IgG Fc(Novex) was added to each well, and incubated at room temperature for 1 hr. After washing three times with PBS, TMB substrate was added, and the plated was incubated at 37° C. After incubation for 5 min to develop color, 1 M sulfuric acid was added to stop the reaction. The OD value was read at 450 nm, and the half maximal inhibitory concentration (IC50 value) was calculated.

T1 sequence (chain, as listed by the source limits assumed): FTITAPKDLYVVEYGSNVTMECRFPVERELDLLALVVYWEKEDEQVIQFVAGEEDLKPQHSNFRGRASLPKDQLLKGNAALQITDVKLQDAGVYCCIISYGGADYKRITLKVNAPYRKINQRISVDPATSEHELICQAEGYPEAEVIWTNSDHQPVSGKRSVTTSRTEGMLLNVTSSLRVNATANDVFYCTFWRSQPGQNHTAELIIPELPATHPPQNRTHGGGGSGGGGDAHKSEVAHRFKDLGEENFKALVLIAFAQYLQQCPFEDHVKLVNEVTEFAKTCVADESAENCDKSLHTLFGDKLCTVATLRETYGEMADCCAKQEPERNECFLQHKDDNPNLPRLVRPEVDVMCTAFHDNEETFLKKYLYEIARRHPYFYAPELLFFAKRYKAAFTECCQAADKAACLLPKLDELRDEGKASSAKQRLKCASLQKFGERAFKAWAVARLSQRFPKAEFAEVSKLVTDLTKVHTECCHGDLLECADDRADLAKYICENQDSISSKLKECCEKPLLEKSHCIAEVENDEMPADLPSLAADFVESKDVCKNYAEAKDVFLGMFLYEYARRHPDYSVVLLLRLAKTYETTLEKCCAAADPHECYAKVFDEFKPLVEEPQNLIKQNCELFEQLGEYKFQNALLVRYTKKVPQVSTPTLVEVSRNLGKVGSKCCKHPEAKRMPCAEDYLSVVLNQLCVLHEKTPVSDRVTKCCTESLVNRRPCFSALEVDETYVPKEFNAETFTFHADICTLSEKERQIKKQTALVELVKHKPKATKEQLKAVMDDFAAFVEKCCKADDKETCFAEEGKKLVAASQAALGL

Binder	binding result [1]	OD450 nm [2] [OD450 nm]	OD450 nm [3] [OD450 nm]	IC50 [4] [µg/mL]
anti-PDL1 single-domain antibody 6F1, histidine-tagged (VHH, not shown: C-terminal histidine tag) VHH: QLQLVESGGGLVQPGGSLRLSCAASGRTFSTHSMHWFRQAPEKERVFVAAINWNGDSTYYADSVKGRFTISRDNSKNTVDLQMNNLKPEDTAVYVCAARPGAPSTIVAMLDYWGQGTQVTVSS	no binding (tested: 1 µg/mL)	0.081	2.05	0.0527
anti-PDL1 single-domain antibody 1A7, histidine-tagged (VHH, not shown: C-terminal histidine tag) VHH: QLQLVESGGDLVQPGGSLRLSCAASGSIFSANLIDWYRQPPGKQRELVAVISSRGITSYADSVKGRFTISRDNAKNTVYLQMNSLKPEDTAVYYCHLFHTDGLGYWGQGTQVTVSS	no binding (tested: 1 µg/mL)	0.082	2.05	0.0505
anti-PDL1 single-domain antibody 1D1, histidine-tagged (VHH, not shown: C-terminal histidine tag) VHH: QLQLVESGGGLVQAGGSLRLSCAASGGTFITYAMGWFRQAPGKDREFVAGISWSGSSTYYTDSVKGRFTISRDNAKNTVYLQMNSLKPGDTAVYYCAAKISGATREHLMTSYDYWGQGTQVTVSS	no binding (tested: 1 µg/mL)	0.074	2.01	0.0452

Other lines, results leading:

binding result [1]	OD450 nm [2] [OD450 nm]	OD450 nm [3] [OD450 nm]	IC50 [4] [µg/mL]	Binder
no binding (tested: 1 µg/mL)	0.064	2.02	0.0436	anti-PDL1 single-domain antibody 5A8, histidine-tagged (VHH, not shown: C-terminal histidine tag) VHH: QLQLVESGGGLVQPGGSLRLSCAASGGTFITYAMGWFRQAPGKDREFVAGISWSGSSTYYTDSVKGRFTISRDNAQNTVYLQMNSRKPGDTAVYYCAAKISGATREHLRTSYDYGGQGTQVTVSS
no binding (tested: 1 µg/mL)	0.073	2.08	0.0628	anti-PDL1 single-domain antibody 1G10, histidine-tagged (VHH, not shown: C-terminal histidine tag) VHH: QVQLVESGGGLVQAGGSLRLSCAASGRPFITYAMGWFRQAPGKEREFVAAINWSGSITAYADSVKGRFTISRDNAKNAAYLQMNSLKPDDTAVYYCASKRTAVAPRALNDYDFWGQGTQVTVSS
no binding (tested: 1 µg/mL)	0.076	2.15	0.0551	anti-PDL1 single-domain antibody 1D7, histidine-tagged (VHH, not shown: C-terminal histidine tag) VHH: QVQLVESGGGLVQPGGSLRLSCAASGRAFLTYAMGWFRQAPGKEREFVAAISWSGSSTYYADSVKGRFTISRDNAKNMVYLQMNSLKPEDTAVYYCAAKVSGATRDHLMTTYDYWGQGTQVTVSS
